Test results from patent US20070293659A1.

Biological target: Human interleukin-2 (IL-2) (human) (UniProt P60568)
Assay: SPR (BIAcore 3000), data not shown

**Q.** “oriented (Or) Fab'602: Fab' fragment of MAB602 biotinylated in the hinge region” was tested. Which Kd did it give?
**A.** 0.1 nM
